Test [1] deals with T1, carrier free RGMa (R&D Systems) (UniProt Q96B86 48-422, limits assumed).
T1 construct: also called RGMa-CF
T1 sequence (looked up): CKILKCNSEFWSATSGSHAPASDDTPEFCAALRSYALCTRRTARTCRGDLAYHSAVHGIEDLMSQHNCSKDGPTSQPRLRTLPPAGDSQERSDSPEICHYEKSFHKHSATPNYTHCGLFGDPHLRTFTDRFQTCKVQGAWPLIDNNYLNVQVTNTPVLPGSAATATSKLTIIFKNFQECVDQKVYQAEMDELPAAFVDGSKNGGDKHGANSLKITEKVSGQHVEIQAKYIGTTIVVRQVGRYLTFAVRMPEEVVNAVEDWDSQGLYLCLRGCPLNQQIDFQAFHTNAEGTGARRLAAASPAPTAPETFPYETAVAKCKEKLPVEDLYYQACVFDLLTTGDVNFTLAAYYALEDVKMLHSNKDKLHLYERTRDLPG
The experiment in a line: direct EIA: carrier-free RGMa coated at 0.5 ug/mL; supernatant diluted 1:125; goat anti-mouse IgG-HRPO. As to the method: (§1) Clones were then tested for cross-reactivity with RGMa and RGMb by EIA. Carrier free RGMa, RGMb, or RGMc (R&D Systems) was coated on the solid phase of micro-titer EIA plates at 0.5 ug/mL. After the antigen had been coated on the solid phase, it was removed and any open binding sites on the plates were blocked using fish gel block solution. The wells were washed with distilled water following this incubation. Cell supernatants and control reagents were added to the blocked plates and allowed to incubate at room temperature for at least one hour. The negative control was a purified mouse mAb from a different antigen system. The positive control for RGMa, RGMb, & RGMc was a goat anti-RGMa, RGMb, or RGMc polyclonal antibody (R&D Systems). Following this incubation, the solutions were removed from the plates and they were washed with distilled water. Donkey anti-Goat IgG-HRPO diluted to approximately 200 ng/mL in block solution was added to the plates with the positive control test samples and goat anti-mouse IgG-HRPO (Jackson Immunoresearch) diluted to approximately 200 ng/mL in block solution was added to the plates with the fusion #1 test samples. All plates were allowed to incubate for 30 minutes at room temperature. The plates were washed with distilled water and o-phenylenediamine substrate was used as the chromogen to generate signal. Plates were read at 492 nm and the results were analyzed.

For test [2], the target named is T2, RGMc antigen: amino acids 33-391 of RGMc followed by human Fc (human, UniProt Q6ZVN8 33-391).
T2 construct: also called RGMc-huFc; RGMc-Fc; not shown: human Fc
T2 sequence: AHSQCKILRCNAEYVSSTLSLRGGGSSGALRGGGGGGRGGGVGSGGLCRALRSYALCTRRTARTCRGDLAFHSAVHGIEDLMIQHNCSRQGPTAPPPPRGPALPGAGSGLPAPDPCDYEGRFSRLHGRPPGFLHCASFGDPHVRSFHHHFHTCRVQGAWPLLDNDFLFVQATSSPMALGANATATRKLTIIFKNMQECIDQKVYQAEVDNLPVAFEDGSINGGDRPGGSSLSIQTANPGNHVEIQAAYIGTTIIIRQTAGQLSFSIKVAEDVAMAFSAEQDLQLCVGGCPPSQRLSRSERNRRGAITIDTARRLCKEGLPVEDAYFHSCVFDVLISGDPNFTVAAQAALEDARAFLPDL
The experiment in a line: direct EIA: RGMc-huFc coated at 1.0 ug/mL; supernatant diluted 1:125; goat anti-mouse IgG Fc-HRPO. As to the method: A mouse:human chimeric antibody or RGMc-huFc was coated on the solid phase of micro-titer EIA plates at 1.0 ug/mL. After the antigen had been coated on the solid phase, it was removed and any open binding sites on the plates were blocked using BSA block solution. The wells were washed with distilled water. Cell supernatants and control reagents were added to the blocked plates and allowed to incubate at room temperature for at least one hour. The negative control was a purified mAb from a different antigen system. The positive control for human IgG was a purified anti-hu IgG mAb developed against another antigen containing human IgG Fc carrier protein. The RGMc positive control is Novus mab 1C12. Following this incubation, the solutions were removed from the plates and they were washed with distilled water. Goat anti-mouse IgG Fc-HRPO (Jackson Immunoresearch) diluted to approximately 200 ng/mL in block solution was added to the plates and allowed to incubate for 30 minutes at room temperature. The plates were washed with distilled water and o-phenylenediamine substrate (Abbott Laboratories) was used as the chromogen to generate signal. Plates were read at 492 nm and the results were analyzed.

Test [3] addresses T3, carrier free RGMb (R&D Systems) (UniProt Q6NW40 46-413, limits assumed).
T3 construct: also called RGMb-CF
T3 sequence (looked up): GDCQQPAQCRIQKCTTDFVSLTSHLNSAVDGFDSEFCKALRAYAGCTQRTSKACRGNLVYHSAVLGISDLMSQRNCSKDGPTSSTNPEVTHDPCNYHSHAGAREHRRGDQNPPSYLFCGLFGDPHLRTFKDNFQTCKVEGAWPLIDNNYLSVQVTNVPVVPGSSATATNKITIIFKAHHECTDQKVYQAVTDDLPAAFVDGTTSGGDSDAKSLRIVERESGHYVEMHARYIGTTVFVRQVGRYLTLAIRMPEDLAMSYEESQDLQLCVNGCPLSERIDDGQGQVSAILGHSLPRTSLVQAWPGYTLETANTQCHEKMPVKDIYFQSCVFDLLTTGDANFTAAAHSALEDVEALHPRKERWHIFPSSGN
The test is described as follows: direct EIA: carrier-free RGMb coated at 0.5 ug/mL; supernatant diluted 1:125; goat anti-mouse IgG-HRPO. On the procedure: as §1

In test [4] the target is T3, carrier free RGMb (R&D Systems). The experiment in a line: EIA on coated carrier-free RGMb (summary of specificity). As to the method: as §1
Test [5] has as its target T4, carrier free RGMc (R&D Systems) (human, UniProt Q6ZVN8 36-400).
T4 construct: also called RGMc-CF
T4 sequence (looked up): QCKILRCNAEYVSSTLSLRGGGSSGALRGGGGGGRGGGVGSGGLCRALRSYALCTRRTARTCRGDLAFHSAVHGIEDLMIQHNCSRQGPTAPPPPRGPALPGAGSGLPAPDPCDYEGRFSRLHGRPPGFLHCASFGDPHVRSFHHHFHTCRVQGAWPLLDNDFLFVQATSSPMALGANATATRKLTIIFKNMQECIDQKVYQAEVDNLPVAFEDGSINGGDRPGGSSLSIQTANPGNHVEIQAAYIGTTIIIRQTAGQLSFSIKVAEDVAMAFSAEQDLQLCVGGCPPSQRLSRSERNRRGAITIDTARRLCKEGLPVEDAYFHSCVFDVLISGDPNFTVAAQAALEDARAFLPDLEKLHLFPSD
The test is described as follows: direct EIA: carrier-free RGMc coated at 0.5 ug/mL; supernatant diluted 1:125; goat anti-mouse IgG-HRPO. On the procedure: as §1

B1: 1A-2989-187 (antibody, V domains shown)
VH: EVQLQQSGAELVRSGASVKLSCTASGFNIRDFYIHWVKQRPEQGLEWLGWIDPENGDIEYAPKFQGKATMTADTSSNTAYLQLNSLTSEDTALYYCNGNGYYLDYWGQGTTLTVSS
VL: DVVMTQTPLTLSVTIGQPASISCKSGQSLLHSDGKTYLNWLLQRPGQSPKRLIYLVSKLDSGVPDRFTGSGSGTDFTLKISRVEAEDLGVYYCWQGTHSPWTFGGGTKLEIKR
Regarding B1, the “absorbance at 492 nm” value was found to be 0.07 in test [1], 1.55 in test [2], 0.07 in test [3] and 1.58 in test [5]. Further, the binding result in test [4] is “no binding”.

B2: 1A-2860-475 (antibody, V domains shown)
VH: DVLLQESGPDLVKPSQSLSLTCTVTGYSISSGYSWHWIRQFPGNKLEWMAYIHYTGNTNYNPSLKSRISITRDTSKNQFFLHLNSVTTEDTATYYCALFGLSGFWGQGTLVTVSA
VL: DVLMTQTPLSLPVSLGDQASISCRSSQTIVHSNGNTYLDWYLQKPGQSPKVLIYKVSNRFSGVPDRFSGSGSGTDFTLKISRVEAEDLGVYFCLQGSHVPWTFGGGTQLEIKR
notes: The parent line 1A-2860 and subclone 1A-2860-177 used in the assays are treated here as the same antibody; also called 1A-2860-177
B2: the “absorbance at 492 nm” value stood at 0.08 in test [1], 1.66 in test [2], 0.06 in test [3] and 1.34 in test [5]. In test [4], the binding result was “no binding”.

B3: 1B-3363-715 (antibody, V domains shown)
VH: DVQLQESGPDLVKPSQSLSLTCTVTGYSITSGYSWHWIRQFPGNKLEWMGYIHYSGNTDYNPSLKSRISFTRDTSKNQFFLQLNSVTTEDTATYFCAIGTGPWGQGTTLTVSS
VL: DVLMTQTPLSLPVSLGDQASISCRSSQNIVHSNGHTYLEWYLQKPGQSPKLLIYKVSNRFSGVPDRFSGSGSGTDFTLKISRVEAEDLGVYYCFQGSHVPWTFGGGTKLEIKR
notes: The parent line 1B-3363 and subclone 1B-3363-502 used in the assays are treated here as the same antibody; also called 1B-3363-502
Turning to B3, the “absorbance at 492 nm” value in test [1] worked out at 0.09; in test [2], 2.8; in test [3], 0.09; in test [5], 2.53. For the same molecule, in test [4], the binding result is on record as “no binding”.
